Laboratory results from the RNAGym collection of RNA variant scans (doi:10.1073/pnas.2313332121).

B1: TPR t1 (parent)
chain: GACCAAUCUGCCCUCAGAGCUCGAGAACAUCUUCGGAUGCAGAGGAGGCAGGCUUCGGUGGCGCGAUAGCGCCAACGUCCUCAACCUCCAAUGCAUCCCACCACAUGAUGAUGCCUGAAGAGCCUUGGUUUUUUG

Variants of: B1
Experiment: polymerase ribozyme fitness, log enrichment relative to wild type (log ratio); higher = more active; in vitro selection for triplet polymerase activity
Procedure, shortened: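 Libraries of mutants in each subunit of a heterodimeric triplet polymerase ribozyme were generated by PCR and transcribed. In triplicate, each went through one in vitro selection round: annealing with biotinylated primer, partner subunit and triplets; frozen incubation at −7 °C; gel excision of extended constructs; streptavidin-bead capture; RT-PCR. Fitness, taken from Illumina sequencing of input and output libraries, is the logarithm of a genotype's enrichment over wild-type enrichment, averaged across replicates with inverse-variance weights. The logarithm is base 2, and genotypes needed ≥10 input reads and ≥1 read per output to be kept.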

Row | Variant | polymerase ribozyme fitness (log ratio)
1 | C22G U38G U87A C98G U112C C114A | -6.53
2 | C22G U87A G113U | -6.04
3 | C22G U106G | -3.47
4 | C22G U132A | -3.21
5 | C22U A37G G61C C64A U112C U126G G128A | -6.8
6 | C22U A37U G69U U78C G110U C115A C124G | -3.86
7 | C22U A46C | -3.65
8 | C22U A46C G61A | -4.91
9 | C22U A50G C104U | -3.86
10 | C22U A74U C101A | -5.04
11 | C22U A84C | -4.07
12 | C22U A90G C101A C114A | -5.96
13 | C22U A95G | -3.7
14 | C22U C28U C88G | -7.29
15 | C22U C34U A83C C124G | -5.96
16 | C22U C53A | -4.52
17 | C22U C53G | -4.85
18 | C22U C56A | -5.17
19 | C22U C56A G69U U78C | -3.41
20 | C22U C56U C114U | -4.27
21 | C22U C64U | -3.81
22 | C22U C64U G77A | -4.03
23 | C22U C72G | -4.14
24 | C22U C72G C124U | -3.08

Row | Variant | polymerase ribozyme fitness (log ratio)
25 | C22U C101A | -4.34
26 | C22U C114A | -4.76
27 | C22U G36A C76G | -5.14
28 | C22U G39U G60C C76U U78A C115G G127C | -6.22
29 | C22U G42U G58A C70U | -5.05
30 | C22U G45A | -4.02
31 | C22U G45U | -4.99
32 | C22U G45U C49A U106A | -5.79
33 | C22U G45U C72A | -4.82
34 | C22U G45U G48C C102A C124G G128A | -6.17
35 | C22U G48C C53G C56A | -4.86
36 | C22U G48U G71U C94A | -6.57
37 | C22U G57A G63U | -5.87
38 | C22U G113A | -4.09
39 | C22U G113U | -5.27
40 | C22U G120A | -3.35
41 | C22U U55G C72A C79A C123A | -6.59
42 | C22U U78A U106G G120C | -5.48
43 | C22U U92G C94A C104G U109G G122A C123A U125A | -7.36
44 | C22U U96A | -4.62
45 | C22U U129A | -5.14
46 | C22U U130G | -3.78
47 | G23A A50U | -5.56
48 | G23A A121U | -2.19

Row | Variant | polymerase ribozyme fitness (log ratio)
49 | G23A C56U | -3.66
50 | G23A C56U G58C C70U C104G G122A | -7.86
51 | G23A C73A | -5.86
52 | G23A C73G | -3.9
53 | G23A C97U A121U | -4.57
54 | G23A C123A | -4.67
55 | G23A G45A | -5.16
56 | G23A G63C | -3.02
57 | G23A G71A | -5.75
58 | G23A G117U | -7.76
59 | G23C A26G C82U G120C | -4.02
60 | G23C A46U C86A A119U G120A | -6.31
61 | G23C A121G | -6.91
62 | G23C C53U U92G C123U | -8.04
63 | G23C C70A G113U G117C | -6.09
64 | G23C G60A G77C C98G A119U | -7.44
65 | G23C G69C C94G U96A G113U G120C | -7.12
66 | G23C G69U | -5.11
67 | G23C U30C G42U G69A U78G A105C C115G | -7.04
68 | G23U A26G G63U C82G U133A | -7.09
69 | G23U C34A G47A C53G G110C U129G | -7.48
70 | G23U C70A A91G G107U C114U | -5.99
71 | G23U C73G | -4.76
72 | G23U G42U U54G C64G G93C G117C | -6.49

Row | Variant | polymerase ribozyme fitness (log ratio)
73 | G23U G51A C70A C101A G110A C114A | -6.74
74 | G23U G51U C56A G63C G69C C114A A121U | -5.92
75 | G23U G58A G60C G120C | -7.23
76 | A24C C31G U32G C62U C114G | -8.07
77 | A24C C73A | -6.46
78 | A24C C124A | -5.24
79 | A24C G35A U55G C115U G127U | -6.12
80 | A24C G36U A37U G42U G61A C79A G110C C123U | -7.34
81 | A24C G39A U55C C104A C124G | -5.87
82 | A24C G61A | -6.26
83 | A24C G63C C79G A90C C124A | -7.24
84 | A24G A26G A90C C115U | -2.12
85 | A24G A27G | -4.03
86 | A24G A27G G120A | -3.91
87 | A24G A41C A46U C53A U125A | -4.79
88 | A24G A43G | -3.13
89 | A24G A84U | -1.7
90 | A24G A90C | -3.03
91 | A24G C34A C53U U87G U132A | -4.54
92 | A24G C40U G71A C114A | -5.13
93 | A24G C49G | -1.9
94 | A24G C49G A121C | -0.875
95 | A24G C53U C62U C89U G113A | -5.19
96 | A24G C56G G113A G120A G128A | -7.42

Row | Variant | polymerase ribozyme fitness (log ratio)
97 | A24G C72U | -1.6
98 | A24G C73A | -1.74
99 | A24G C97U G120U | -2.28
100 | A24G C115U | -2.59
101 | A24G G36U C56U C101U | -3.37
102 | A24G G39C U92G C104U | -5.73
103 | A24G G44U C64U U133G | -3.26
104 | A24G G45C | -3.46
105 | A24G G48A C64G A108U A121C | -6.51
106 | A24G G51U G69A G113C G120U | -6.67
107 | A24G G52A A66U C73U A91G | -4.6
108 | A24G G57A U78C C101A | -4.85
109 | A24G G57C A91G | -2.98
110 | A24G G58U G61C | -1.68
111 | A24G G60A C80U C88A | -4.67
112 | A24G G61U C86G | -3.34
113 | A24G G69C C85G | -4.96
114 | A24G G117C G128A | -6.86
115 | A24G G120U | -1.65
116 | A24G U38G C56A C80A | -5.92
117 | A24G U54G G57C C72U C73G C124U | -3.92
118 | A24G U55G C64U | -1.64
119 | A24G U59A U78C C85G U106G | -3.94
120 | A24G U81A | -2.64

Row | Variant | polymerase ribozyme fitness (log ratio)
121 | A24G U87G | -2.03
122 | A24G U109C | -5.04
123 | A24G U112G | -1.29
124 | A24U C28G A84C G120U | -7.73
125 | A24U C56A G60A C123U U125A | -5.92
126 | A24U C72U | -5.63
127 | A24U C124A | -3.28
128 | A24U G39A C72A U112C | -7.11
129 | A24U G39U G60U C115A U129C | -6.65
130 | A24U G61U | -6.34
131 | A24U G61U A91G G120U C124U G135A | -6.15
132 | A24U G61U C88A G117C | -6.74
133 | A24U G69U C114G | -7.51
134 | A24U U30G G63U C102G | -5.42
135 | A24U U38A C72U C80G C99U | -7.56
136 | A24U U112A | -4.52
137 | G25A A26G A46U G63A A118C G120A | -5.5
138 | G25A C28A C31G G63U A74G C99U | -7.56
139 | G25A C40U G69C G93C C101U C104G C115U A118G | -7.63
140 | G25A C56A | -5.23
141 | G25A C62A C86U C102U G120C | -7.36
142 | G25A C72A C86G | -6.66
143 | G25A C73A | -6.13
144 | G25A G47A C72G C76U U87G C114G | -5.41

Row | Variant | polymerase ribozyme fitness (log ratio)
145 | G25A G60U G117A | -7.98
146 | G25C A29G C64A C79G A90C G117U A119G | -7.04
147 | G25C A46G C70U C85G | -6.39
148 | G25C A83C C94G A103U C124G U125C | -8.57
149 | G25C C53A | -6.51
150 | G25C C70A | -7.32
151 | G25C G61C U92G G117U | -6.32
152 | G25C G69U | -4.39
153 | G25U A26G | -3.22
154 | G25U A46G | -6.02
155 | G25U A121C | -4.83
156 | G25U C56A | -4.45
157 | G25U C64G C88A G110A G120C C123U | -6.08
158 | G25U C72U G110U C114U | -6.32
159 | G25U G36U | -6.39
160 | G25U G61U | -5.8
161 | G25U G110U | -5.41
162 | A26C A43G G63C G69A C115G | -4.47
163 | A26C A83C | -5.16
164 | A26C C34U G36U C72A | -6.66
165 | A26C C53U C56G | -5.02
166 | A26C C53U U54A G60U | -5.26
167 | A26C G39C C104U U106A G120A | -5.96
